Results on one sequence are retold here after patent US20230184767.

As usually defined, the Kd is the free concentration of one partner at which half of the binding sites on the other are occupied at equilibrium, for simple one-to-one binding. A higher Kd goes with weaker binding.

This data set relates to infectious human adenovirus 2 (HAdV-2, whole virus) (Human adenovirus 2). The data set is described as follows: ELONA. The conditions noted are these: SELEX buffer 20 mM Tris, 100 mM NaCl, 2.5 mM MgCl2, pH 7.2, room temperature.

In the case of “GGCTGCAGCTGAAGCACTGGTTTTGAGTCAAACCCAGACGATGGA [Apt-HAdV]”, the Kd came out at 0.9 nM.
